# Measured values taken from US6761878B2, “Pathological tissue detection and treatment employing targeted benzoindole optical agents” (Mallinckrodt, Inc., priority 2001, dated 2004).
# Tests used:
# [1] = tested on: CA20948 rat tissues and organs; assay: Fluorescence imaging of ex-vivo tissues and organs from CA20948 tumor bearing rat; type: in vivo; conditions: 27 hours post administration (FIG. 5)
# Protocol: Individual organs were removed from the CA20948 rat which was injected with cytate 1 and were imaged.
# [2] = tested on: Dunning R3327-H (prostate) tumor; assay: In vivo fluorescence imaging of Dunning R3327-H tumor bearing rats; parameters: species or system male Lewis rats; conditions: images at 2 and 30 minutes post administration, 0.5 ml of 0.42 mg/ml i.v.
# From the text: (§1) A non-invasive in vivo fluorescence imaging apparatus was employed to assess the efficacy of indocyanine green (ICG) in three different rat tumor cell lines of the inventive contrast agents developed for tumor detection in animal models. A LaserMax Inc. laser diode of nominal wavelength 780 nm and nominal power of 40 mW was used. The detector was a Princeton Instruments model RTE/CCD-1317-K/2 CCD camera with a Rodenstock 10 mm F2 lens (stock #542.032.002.20) attached. An 830 nm […] (CVI Laser Corp., part #F10-830-4-2) was mounted in front of the CCD input lens, such that only emitted fluorescent light from the contrast agent was imaged.
# (§2) Three tumor cell lines, DSL 6/A (pancreatic), Dunning R3327-H (prostate), and CA20948 (pancreatic), which are rich in somatostatin (SST-2) receptors were induced into male Lewis rats by solid implant technique in the left flank area (Achilefu et al., Invest. Radiology, 2000, pp. 479-485). Palpable masses were detected nine days post implant.
# (§3) The animals were anesthetized with xylazine:ketamine:acepromazine (1.5:1.5:0.5^v/v) at 0.8 ml/kg via intramuscular injection. The left flank was shaved to expose the tumor and surrounding surface area. A 21-gauge butterfly needle equipped with a stopcock connected to two syringes containing heparinized saline was placed into the tail vein of the rat. […]
# [3] = tested on: CA20948 (pancreatic) tumor, rich in somatostatin (SST-2) receptors; assay: In vivo fluorescence imaging of CA20948 tumor bearing rats; parameters: species or system male Lewis rats
# From the text: as §1, §2, §3
# [4] = tested on: DSL 6/A (pancreatic) tumor; assay: In vivo fluorescence imaging of DSL 6/A tumor bearing rats; parameters: species or system male Lewis rats; conditions: images at 2 and 30 minutes post administration, 0.5 ml of 0.42 mg/ml i.v.
# From the text: as §1, §2, §3
Compound,uptake of the conjugate in adrenal glands ([1]; ex vivo organ),uptake of the conjugate in heart ([1]; ex vivo organ),uptake of the conjugate in liver ([1]; ex vivo organ),uptake of the conjugate in pancreas ([1]; ex vivo organ),uptake of the conjugate in spleen ([1]; ex vivo organ),uptake of the conjugate in muscle ([1]; ex vivo tissue),uptake of the conjugate in tumor tissue ([1]; ex vivo tissue),perfusion of the agent into the tumor [2],non-specific localization into the tumor line ([3]; compared to the other two lines),"perfusion of the agent into the tumor ([3]; images at 2 and 30 minutes post administration, 0.5 ml of 0.42 mg/ml i.v.)",perfusion of the agent into the tumor [4]
"C[C@@H](O)[C@H](NC(=O)[C@@H]1CSSC[C@H](NC(=O)[C@@H](Cc2ccccc2)NC(=O)CC[N+]2=C(/C=C/C=C/C=C/C=C3/N(CCC(=O)O)c4ccc5ccccc5c4C3(C)C)C(C)(C)c3c2ccc2ccccc32)C(=O)N[C@@H](Cc2ccc(O)cc2)C(=O)N[C@H](Cc2c[nH]c3ccccc23)C(=O)N[C@@H](CCCCN)C(=O)N[C@@H]([C@@H](C)O)C(=O)N1)C(=O)O [Cytate 1, monooctreotate-bisethylcarboxymethylindocyanine dye]",High uptake,Significant lower uptake,Significant lower uptake,High uptake,Significant lower uptake,Significant lower uptake,High uptake,–,–,–,–
"CC1(C)C(/C=C/C=C/C=C/C=C2\N(CCCCS(=O)(=O)O)c3ccc4ccccc4c3C2(C)C)=[N+](CCCCS(=O)(=O)[O-])c2ccc3ccccc3c21 [ICG, indocyanine green]",–,–,–,–,–,–,–,slow perfusion of the agent into the tumor over time,no non-specific localization,only a slight and transient perfusion that was cleared after only 30 minutes post injection,slow perfusion of the agent into the tumor over time
